Where “and” joins values, the source holds several entries; their conditions need not be identical. Equal entries are not always repeated.
Conditions: Desulfovibrio desulfuricans (strain ATCC 27774 / DSM 6949 / MB), pH 7, 20 °C, GdnHCl, sodium phosphate 5 mM, reversible: yes, whole UniProt chain shown

B1: Desulfoferrodoxin wild type, P22076 (protein)
chain: MPKHLEVYKCTHCGNIVEVLHGGGAELVCCGEPMKHMVEGSTDGAMEKHVPVIEKVDGGYLIKVGSVPHPMEEKHWIEWIELLADGRSYTKFLKPGDAPEAFFAIDASKVTAREYCNLHGHWKAEN
denaturant midpoint (higher = more stable) (CD, transition: 3): 4.9 M and 5.1 M
unfolding free energy (CD, transition: 3): 11.3 kcal/mol and 12 kcal/mol
denaturant midpoint (higher = more stable) (Fluorescence): 2.3 M
unfolding free energy (Fluorescence): 11.3 kcal/mol
denaturant midpoint (higher = more stable) (Fluorescence, transition: 3): 1.7 M and 2.2 M and 2.9 M
unfolding free energy (Fluorescence, transition: 3): 10.6 kcal/mol and 10.9 kcal/mol
